B1: bispecific antibody PD1b-E-HN (bispecific antibody)
heavy: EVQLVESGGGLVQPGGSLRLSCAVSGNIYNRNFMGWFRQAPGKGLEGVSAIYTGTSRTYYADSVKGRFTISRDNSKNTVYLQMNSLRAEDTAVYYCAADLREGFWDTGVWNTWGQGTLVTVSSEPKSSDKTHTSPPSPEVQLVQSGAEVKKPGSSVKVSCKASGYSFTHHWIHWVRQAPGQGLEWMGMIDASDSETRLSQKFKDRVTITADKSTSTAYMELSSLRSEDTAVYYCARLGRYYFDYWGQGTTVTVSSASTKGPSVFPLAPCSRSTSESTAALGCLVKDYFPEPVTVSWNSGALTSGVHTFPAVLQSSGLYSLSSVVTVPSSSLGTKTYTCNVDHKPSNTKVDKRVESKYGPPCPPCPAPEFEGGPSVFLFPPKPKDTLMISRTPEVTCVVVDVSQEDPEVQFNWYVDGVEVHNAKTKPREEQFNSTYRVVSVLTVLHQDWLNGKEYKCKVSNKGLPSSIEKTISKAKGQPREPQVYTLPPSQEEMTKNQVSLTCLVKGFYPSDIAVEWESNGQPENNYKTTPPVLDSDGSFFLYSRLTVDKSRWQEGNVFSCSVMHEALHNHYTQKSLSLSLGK
light: EIVLTQSPATLSLSPGERATLSCRASENVGTYISWYQQKPGQAPRLLIYGASNRYTGIPARFSGSGSGTDFTLTISSLEPEDFAVYYCGESYGHLYTFGGGTKVEIKRTVAAPSVFIFPPSDEQLKSGTASVVCLLNNFYPREAKVQWKVDNALQSGNSQESVTEQDSKDSTYSLSSTLTLSKADYEKHKVYACEVTHQGLSSPVTKSFNRGEC
B2: bispecific antibody PD1a-G15-HC (bispecific antibody)
heavy: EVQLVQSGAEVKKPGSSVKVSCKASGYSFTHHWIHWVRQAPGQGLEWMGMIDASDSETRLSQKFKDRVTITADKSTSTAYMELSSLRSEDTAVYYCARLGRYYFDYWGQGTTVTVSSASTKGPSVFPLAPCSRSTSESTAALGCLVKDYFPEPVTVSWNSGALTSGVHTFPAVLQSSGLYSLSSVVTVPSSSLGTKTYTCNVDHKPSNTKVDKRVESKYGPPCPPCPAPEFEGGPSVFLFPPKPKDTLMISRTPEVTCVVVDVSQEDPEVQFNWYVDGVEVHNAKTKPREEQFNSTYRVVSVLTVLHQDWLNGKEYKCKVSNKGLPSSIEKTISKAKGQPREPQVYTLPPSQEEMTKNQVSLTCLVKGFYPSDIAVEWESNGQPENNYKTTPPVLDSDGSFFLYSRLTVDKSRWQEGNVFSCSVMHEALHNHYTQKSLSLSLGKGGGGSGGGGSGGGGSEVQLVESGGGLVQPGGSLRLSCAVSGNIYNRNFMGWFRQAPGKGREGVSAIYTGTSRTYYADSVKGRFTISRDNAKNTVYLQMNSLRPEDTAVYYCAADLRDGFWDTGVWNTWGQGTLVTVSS
light: B1 light
B3: bispecific antibody PD1a-E-HN (bispecific antibody)
heavy: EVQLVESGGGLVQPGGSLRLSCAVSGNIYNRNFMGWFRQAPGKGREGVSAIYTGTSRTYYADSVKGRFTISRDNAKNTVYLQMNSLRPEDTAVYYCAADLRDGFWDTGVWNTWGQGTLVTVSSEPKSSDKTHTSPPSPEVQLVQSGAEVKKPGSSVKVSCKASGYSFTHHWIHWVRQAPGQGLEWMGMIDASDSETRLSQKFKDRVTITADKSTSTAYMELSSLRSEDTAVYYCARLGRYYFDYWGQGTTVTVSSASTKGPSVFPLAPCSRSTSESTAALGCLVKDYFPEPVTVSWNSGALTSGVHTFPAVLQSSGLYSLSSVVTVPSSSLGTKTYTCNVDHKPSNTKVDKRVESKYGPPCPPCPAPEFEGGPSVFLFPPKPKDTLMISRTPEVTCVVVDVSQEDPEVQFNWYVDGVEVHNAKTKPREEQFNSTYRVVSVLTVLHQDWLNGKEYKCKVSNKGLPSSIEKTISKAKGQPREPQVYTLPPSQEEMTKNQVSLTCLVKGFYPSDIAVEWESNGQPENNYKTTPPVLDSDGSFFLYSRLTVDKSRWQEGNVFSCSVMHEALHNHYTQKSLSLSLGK
light: B1 light
B4: bispecific antibody PD1b-E-HC (bispecific antibody)
heavy: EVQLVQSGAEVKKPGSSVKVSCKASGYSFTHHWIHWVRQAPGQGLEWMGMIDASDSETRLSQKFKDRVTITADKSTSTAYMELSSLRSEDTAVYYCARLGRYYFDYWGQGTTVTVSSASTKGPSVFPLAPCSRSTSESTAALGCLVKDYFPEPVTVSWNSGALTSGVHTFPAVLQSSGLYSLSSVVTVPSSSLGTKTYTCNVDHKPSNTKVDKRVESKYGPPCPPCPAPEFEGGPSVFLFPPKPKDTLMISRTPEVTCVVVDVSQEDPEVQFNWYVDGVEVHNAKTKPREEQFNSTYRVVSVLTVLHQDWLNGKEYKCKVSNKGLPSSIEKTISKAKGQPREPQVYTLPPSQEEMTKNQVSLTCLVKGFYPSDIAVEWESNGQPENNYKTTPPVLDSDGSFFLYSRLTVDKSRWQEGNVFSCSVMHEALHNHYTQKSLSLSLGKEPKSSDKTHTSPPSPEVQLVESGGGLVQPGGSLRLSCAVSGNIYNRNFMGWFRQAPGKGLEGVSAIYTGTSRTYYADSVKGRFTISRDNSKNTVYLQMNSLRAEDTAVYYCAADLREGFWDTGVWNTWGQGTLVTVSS
light: B1 light
B5: bispecific antibody PD1a-E-HC (bispecific antibody)
heavy: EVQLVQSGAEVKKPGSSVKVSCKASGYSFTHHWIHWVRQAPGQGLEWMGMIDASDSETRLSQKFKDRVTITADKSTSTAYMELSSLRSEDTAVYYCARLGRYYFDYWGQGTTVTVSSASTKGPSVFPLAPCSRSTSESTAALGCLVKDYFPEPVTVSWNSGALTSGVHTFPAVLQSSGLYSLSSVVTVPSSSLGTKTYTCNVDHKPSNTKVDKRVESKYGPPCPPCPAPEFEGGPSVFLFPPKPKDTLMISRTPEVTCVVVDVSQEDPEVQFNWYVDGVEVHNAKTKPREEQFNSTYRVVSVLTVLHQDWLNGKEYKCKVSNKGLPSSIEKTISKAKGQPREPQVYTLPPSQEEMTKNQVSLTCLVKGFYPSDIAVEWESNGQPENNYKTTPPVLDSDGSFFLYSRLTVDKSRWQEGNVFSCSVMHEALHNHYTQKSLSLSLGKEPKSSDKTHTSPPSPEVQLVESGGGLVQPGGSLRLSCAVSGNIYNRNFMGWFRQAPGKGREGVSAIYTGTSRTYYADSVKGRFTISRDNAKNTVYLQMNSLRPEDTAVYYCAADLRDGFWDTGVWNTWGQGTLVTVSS
light: B1 light
B6: anti-CD47 monoclonal antibody (heavy chain H0 and light chain L0) (antibody, V domains shown)
VH: EVQLVQSGAEVKKPGSSVKVSCKASGYSFTHHWIHWVRQAPGQGLEWMGMIDASDSETRLSQKFKDRVTITADKSTSTAYMELSSLRSEDTAVYYCARLGRYYFDYWGQGTTVTVSS
VL: EIVLTQSPATLSLSPGERATLSCRASENVGTYISWYQQKPGQAPRLLIYGASNRYTGIPARFSGSGSGTDFTLTISSLEPEDFAVYYCGESYGHLYTFGGGTKVEIKR
B7: bispecific antibody PD1a-E-LN (bispecific antibody)
heavy: not shown
light: EVQLVESGGGLVQPGGSLRLSCAVSGNIYNRNFMGWFRQAPGKGREGVSAIYTGTSRTYYADSVKGRFTISRDNAKNTVYLQMNSLRPEDTAVYYCAADLRDGFWDTGVWNTWGQGTLVTVSSEPKSSDKTHTSPPSPEIVLTQSPATLSLSPGERATLSCRASENVGTYISWYQQKPGQAPRLLIYGASNRYTGIPARFSGSGSGTDFTLTISSLEPEDFAVYYCGESYGHLYTFGGGTKVEIKRTVAAPSVFIFPPSDEQLKSGTASVVCLLNNFYPREAKVQWKVDNALQSGNSQESVTEQDSKDSTYSLSSTLTLSKADYEKHKVYACEVTHQGLSSPVTKSFNRGEC
B8: bispecific antibody PD1b-E-LN (bispecific antibody)
heavy: not shown
light: B7 light with R45L, A75S, P88A, D102E
B9: bispecific antibody PD1a-E-LC (bispecific antibody)
heavy: not shown
light: EIVLTQSPATLSLSPGERATLSCRASENVGTYISWYQQKPGQAPRLLIYGASNRYTGIPARFSGSGSGTDFTLTISSLEPEDFAVYYCGESYGHLYTFGGGTKVEIKRTVAAPSVFIFPPSDEQLKSGTASVVCLLNNFYPREAKVQWKVDNALQSGNSQESVTEQDSKDSTYSLSSTLTLSKADYEKHKVYACEVTHQGLSSPVTKSFNRGECEPKSSDKTHTSPPSPEVQLVESGGGLVQPGGSLRLSCAVSGNIYNRNFMGWFRQAPGKGREGVSAIYTGTSRTYYADSVKGRFTISRDNAKNTVYLQMNSLRPEDTAVYYCAADLRDGFWDTGVWNTWGQGTLVTVSS
B10: bispecific antibody PD1b-E-LC (bispecific antibody)
heavy: not shown
light: B9 light with R274L, A304S, P317A, D331E

Positions count from the first letter of the chain named.

Sequence of CD47 (Q08722 19-323): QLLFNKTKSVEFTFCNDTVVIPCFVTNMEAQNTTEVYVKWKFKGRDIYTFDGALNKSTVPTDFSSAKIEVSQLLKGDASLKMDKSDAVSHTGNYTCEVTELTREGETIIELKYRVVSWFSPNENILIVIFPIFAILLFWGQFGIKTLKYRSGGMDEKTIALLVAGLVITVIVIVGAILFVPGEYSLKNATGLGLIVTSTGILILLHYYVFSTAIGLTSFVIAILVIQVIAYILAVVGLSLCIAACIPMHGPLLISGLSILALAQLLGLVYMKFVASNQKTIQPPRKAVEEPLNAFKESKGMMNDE

The first assay has as its target CD47 (UniProt Q08722 19-323). In words: FACS. (In flow cytometry, cells or beads pass a laser one at a time.)
Usually EC50 stands for the midpoint of the concentration-response curve. Low values mean higher potency in that assay, high ones lower potency in that assay. The molecule B1 returned an EC50 of 1.78 nM. For B2, the EC50 stood at 0.968 nM. Still for that read-out and setting: the same measure for B3: 1.41 nM; for B4: 0.804 nM. The same measure, in the same setting: next, B5: 1.09 nM; B6: 1.46 nM.

In the next assay the target is human PD-1 (human, UniProt Q15116 25-288). Description: FACS binding, CHO-K1 cells expressing human PD-1.
Sequence of human PD-1 (Q15116 25-288): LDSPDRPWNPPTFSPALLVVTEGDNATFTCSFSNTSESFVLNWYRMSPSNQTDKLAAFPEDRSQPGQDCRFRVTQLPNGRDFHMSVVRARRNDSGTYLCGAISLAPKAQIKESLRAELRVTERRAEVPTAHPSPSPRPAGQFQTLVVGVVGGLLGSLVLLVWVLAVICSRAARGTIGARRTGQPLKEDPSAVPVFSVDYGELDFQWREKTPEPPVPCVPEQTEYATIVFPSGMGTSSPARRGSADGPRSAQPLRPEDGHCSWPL
In turn, B7 gave a half-maximal effective concentration (EC50) of 3.69 nM. Still for that read-out and setting: next, B8: 3.02 nM.

In the case of B1, the EC50 was 2.82 nM. In turn, B2 yielded a 50% effective concentration (EC50) of 4.75 nM. As for B3, a half-maximal effect (EC50) was put at 4.15 nM. Regarding B4, it took 3.25 nM to reach a half-maximal effect (EC50).

As to B5, the response was half-maximal at 2.6 nM (EC50). Still for that read-out and setting: next, B6: around 4.44 nM. Still for that read-out and setting: the same measure for B9: 7.74 nM. On the same count and under the same terms, next, B10: 2.34 nM.

The record behind these values is patent publication US20220332824A1 (published 2022).
